Measurements: article PMC10199920, “Identification of a mycobacterial hydrazidase, an isoniazid-hydrolyzing enzyme” (Scientific Reports, 2023)

Assays:
Assay type in all cases: biochemical, Mycolicibacterium smegmatis
Details in all cases: 50 mM sodium phosphate pH 7.0, 37 °C, 15 min
NNC(=O)c1cccnc1 = assay: colorimetric hydrazine formation (p-dimethylaminobenzaldehyde), Lineweaver-Burk
Text: (§1) colorimetric hydrazine formation (p-dimethylaminobenzaldehyde), Lineweaver-Burk on PzaA

NNC(=O)c1ccncc1 = assay: as above
Text: as §1

NC(=O)c1cccnc1 = assay: colorimetric ammonia formation, Lineweaver-Burk
Text: (§2) colorimetric ammonia formation, Lineweaver-Burk on PzaA

NC(=O)c1ccncc1 = assay: colorimetric ammonia formation, Lineweaver-Burk
Text: as §2

NC(=O)c1cnccn1 = assay: colorimetric ammonia formation, Lineweaver-Burk
Text: as §2

## PzaA (Mycolicibacterium smegmatis MC2 155)
NNC(=O)c1cccnc1
  Km: 1.26 (0.0475) mM
  Vmax: 23.7 µmol/min/mg
  Vmax/Km: 18800 µL/min/mg
NNC(=O)c1ccncc1
  Km: 1.20 (0.271) mM
  Vmax: 1.51 µmol/min/mg
  Vmax/Km: 1260 µL/min/mg
NC(=O)c1cccnc1
  Km: 0.0887 (0.0113) mM
  Vmax: 37.2 µmol/min/mg
  Vmax/Km: 419000 µL/min/mg
NC(=O)c1ccncc1
  Km: 0.145 (0.0203) mM
  Vmax: 6.48 µmol/min/mg
  Vmax/Km: 44700 µL/min/mg
NC(=O)c1cnccn1
  Km: 0.143 (0.0078) mM
  Vmax: 11.7 µmol/min/mg
  Vmax/Km: 81800 µL/min/mg
